The test system of this data set is Escherichia coli TOP10. Briefly: shrunken log2 fold change of peptide-encoding DNA abundance (4.5 h post-induction vs induction); higher = less antimicrobial activity (less host growth inhibition). The note with it: time post-induction: 4.5 h; library: site-saturation at positions 5, 18, 19, 20.
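Further: peptides expressed intracellularly from a pBAD plasmid library in pooled LB shake-flask culture, induced with 0.3% L-arabinose, DNA abundance read by NGS, three biological replicates, DESeq2 with apeglm shrinkage.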

In the case of RRIRMRPPRLPRPRPRPNEAPRP, the “shrunken log2 fold change” value was determined as 0.326. Next, RRIRNRPPRLPRPRPRPHCMPRP: -0.251; RRIRVRPPRLPRPRPRPKYDPRP: -0.269.

For the sequence RRIRLRPPRLPRPRPRPIHLPRP, the “shrunken log2 fold change” value was -0.453. Next, RRIRPRPPRLPRPRPRPTPHPRP: 0.373; RRIRPRPPRLPRPRPRPNFGPRP: 0.26. Next, RRIRIRPPRLPRPRPRPCIVPRP: -0.562. Next, RRIRPRPPRLPRPRPRPQKRPRP: 0.151; RRIRYRPPRLPRPRPRPQEQPRP: -0.0134; RRIRPRPPRLPRPRPRPLPPPRP: 0.36.

Consider RRIRRRPPRLPRPRPRPLLKPRP, for which the “shrunken log2 fold change” value was determined as 0.415.

With RRIRWRPPRLPRPRPRPCSAPRP, the “shrunken log2 fold change” value was found to be 0.0988. RRIRYRPPRLPRPRPRPFNEPRP: the “shrunken log2 fold change” value is -1.01. The figure for RRIRLRPPRLPRPRPRPSVSPRP is -0.0466; for RRIRKRPPRLPRPRPRPTMSPRP it is 0.22; for RRIRYRPPRLPRPRPRPNDEPRP it is -0.034. On to RRIRERPPRLPRPRPRPPSWPRP, for which the “shrunken log2 fold change” value was -0.2.

Consider RRIRRRPPRLPRPRPRPEQWPRP, for which the “shrunken log2 fold change” value is -0.173. As for RRIRERPPRLPRPRPRPQIDPRP, the “shrunken log2 fold change” value was -0.046. The figure for RRIRKRPPRLPRPRPRPLLLPRP is -0.105. The figure for RRIRNRPPRLPRPRPRPETGPRP is 2.57; for RRIRNRPPRLPRPRPRPPDFPRP it is 0.272; for RRIRTRPPRLPRPRPRPYCIPRP it is -0.205. The figure for RRIRRRPPRLPRPRPRPINMPRP is -0.271; for RRIRPRPPRLPRPRPRPMNKPRP it is -0.551; for RRIRKRPPRLPRPRPRPCRWPRP it is -0.0708. For the sequence RRIRKRPPRLPRPRPRPEIQPRP, the “shrunken log2 fold change” value was -0.0762.

Regarding RRIRRRPPRLPRPRPRPFKNPRP, the “shrunken log2 fold change” value was determined as 0.0357. The figure for RRIRLRPPRLPRPRPRPRDDPRP is 0.108.

Regarding RRIRPRPPRLPRPRPRPHITPRP, the “shrunken log2 fold change” value was -0.759.

With RRIRERPPRLPRPRPRPSAMPRP, the “shrunken log2 fold change” value was -0.279. The figure for RRIRLRPPRLPRPRPRPEWYPRP is 0.0934; for RRIRARPPRLPRPRPRPGLKPRP it is 0.469; for RRIRARPPRLPRPRPRPNLNPRP it is -0.0397. Next, RRIRNRPPRLPRPRPRPFNAPRP: -0.257; RRIRMRPPRLPRPRPRPVEPPRP: 0.207; RRIRGRPPRLPRPRPRPMKYPRP: 0.0733.

For the sequence RRIRARPPRLPRPRPRPRVDPRP, the “shrunken log2 fold change” value is 0.419.

Regarding RRIRARPPRLPRPRPRPIQVPRP, the “shrunken log2 fold change” value is -0.215. The figure for RRIRYRPPRLPRPRPRPVWLPRP is -0.0438.

With RRIRWRPPRLPRPRPRPVPGPRP, the “shrunken log2 fold change” value worked out at 0.491. Next, RRIRARPPRLPRPRPRPIDIPRP: 0.0327; RRIRMRPPRLPRPRPRPQENPRP: 0.48. The figure for RRIRLRPPRLPRPRPRPLYGPRP is -0.249. The figure for RRIRKRPPRLPRPRPRPPVIPRP is 0.063. As for RRIRWRPPRLPRPRPRPKTMPRP, the “shrunken log2 fold change” value turned out to be 0.35. Next, RRIRERPPRLPRPRPRPQLAPRP: 0.00697. Next, RRIRMRPPRLPRPRPRPKTDPRP: 1.32; RRIRDRPPRLPRPRPRPFINPRP: -0.337.

RRIRLRPPRLPRPRPRPLCYPRP: the “shrunken log2 fold change” value is -0.15. Consider RRIRYRPPRLPRPRPRPICTPRP, for which the “shrunken log2 fold change” value is -0.376. Next, RRIRPRPPRLPRPRPRPAGVPRP: 0.392. Next, RRIRLRPPRLPRPRPRPQRWPRP: 0.236. As to RRIRFRPPRLPRPRPRPCGQPRP, the “shrunken log2 fold change” value turned out to be 0.151. The figure for RRIRCRPPRLPRPRPRPYQAPRP is -1.11. The figure for RRIRLRPPRLPRPRPRPYKFPRP is -0.447; for RRIRTRPPRLPRPRPRPLIYPRP it is -0.174; for RRIRIRPPRLPRPRPRPQVFPRP it is -0.0107. As to RRIRWRPPRLPRPRPRPSIYPRP, the “shrunken log2 fold change” value is -0.305. The figure for RRIRHRPPRLPRPRPRPLWSPRP is -0.31; for RRIRIRPPRLPRPRPRPTMWPRP it is -0.0599; for RRIRGRPPRLPRPRPRPQNPPRP it is 0.0251. Regarding RRIRLRPPRLPRPRPRPFPEPRP, the “shrunken log2 fold change” value is -0.0878.

Consider RRIRFRPPRLPRPRPRPFEPPRP, for which the “shrunken log2 fold change” value was -0.0506. For the sequence RRIRLRPPRLPRPRPRPWMMPRP, the “shrunken log2 fold change” value stood at 0.00744.

Regarding RRIRERPPRLPRPRPRPFRVPRP, the “shrunken log2 fold change” value is -0.0333. Next, RRIRYRPPRLPRPRPRPTCSPRP: -0.0789; RRIRYRPPRLPRPRPRPSKLPRP: -0.917; RRIRYRPPRLPRPRPRPTWIPRP: -1.08. The figure for RRIRPRPPRLPRPRPRPSIVPRP is -0.662; for RRIRDRPPRLPRPRPRPRIKPRP it is -0.454; for RRIRGRPPRLPRPRPRPGVPPRP it is 1. Next, RRIRKRPPRLPRPRPRPGYQPRP: 0.0954. With RRIRLRPPRLPRPRPRPMNGPRP, the “shrunken log2 fold change” value was -0.618. For the sequence RRIRFRPPRLPRPRPRPESKPRP, the “shrunken log2 fold change” value turned out to be 0.183. Next, RRIRWRPPRLPRPRPRPKSKPRP: 0.194; RRIRMRPPRLPRPRPRPWPEPRP: 0.735.

Regarding RRIRYRPPRLPRPRPRPQPHPRP, the “shrunken log2 fold change” value was -0.348. Next, RRIRHRPPRLPRPRPRPVWNPRP: -0.402; RRIRQRPPRLPRPRPRPGAKPRP: 0.177. Next, RRIRRRPPRLPRPRPRPTPIPRP: 1.03. The figure for RRIRQRPPRLPRPRPRPFYIPRP is 0.0172.

On to RRIRLRPPRLPRPRPRPQTGPRP, for which the “shrunken log2 fold change” value was -0.247. On to RRIRGRPPRLPRPRPRPRMEPRP, for which the “shrunken log2 fold change” value is 0.483. The figure for RRIRHRPPRLPRPRPRPIVVPRP is 0.0062. The figure for RRIRERPPRLPRPRPRPHMYPRP is -0.577. The figure for RRIRYRPPRLPRPRPRPANYPRP is -0.0328; for RRIRNRPPRLPRPRPRPNYTPRP it is -0.359; for RRIRYRPPRLPRPRPRPRFCPRP it is -0.17. Turning to RRIRSRPPRLPRPRPRPFPYPRP, the “shrunken log2 fold change” value is -0.115. Regarding RRIRRRPPRLPRPRPRPPHNPRP, the “shrunken log2 fold change” value was 1.21.

Values taken from the supplement of paper PMC9112550, “Optimization of the antimicrobial peptide Bac7 by deep mutational scanning” (BMC Biology, 2022).
